Measurements: publication PMC11857070

Target: Lectin-like protein 1 (Llp1), residues 23-241, without the signal peptide (Ustilago maydis)
Test: SEC-MALS; Superdex 200 Increase 10/300, HEPES buffer, pH 7.5

Lectin-like protein 1 (Llp1), residues 23-241, without the signal peptide (from UniProt A0A0D1E6R1 23-241) (domain or fragment)
stoichiometry N: 4
